According to the RNAGym collection of RNA variant scans (doi:10.7554/elife.90254):

B1: LINE1-full (parent)
chain: UACGUAGGUGGUUUUCCCCUGAUAGUGCUAAGGGGGCCUGGAAGUUUGGACUGGGCAGAGCUCAACACAGCGUGGCAAAGUGGCUGUGGCUAGACUGCCUCUCUGGAUUCCUCGUCACUCAGCAGGGCAUCUCUGAGAGAAAUGCC

Variants of: B1
Assay: self-cleavage, relative activity (ratio to wild type); higher = more cleavage; in vitro, sequencing; the parent is a self-cleaving ribozyme

Variant	self-cleavage
UACGUAGGUGGUUUUCCCCUGAUAGUGCUAAGGGGGCCUGGAAGUUUGGACUGGGCAGAGCUCAACACAGCGUGGCAAAGUGGCUGUGGCUAGACUGCCUCUCGGGAUUCCUCGUCACUCAGCAGGGCAACUCUGAGAGAAAUGCC [U104G U130A]	0
UACGAAGGUGGUUUUCCCCUGAUAGUGCUAAGGGGGCCUGGAAGUUUGGACUGGGCAGAGCUCAACACAGCGUGGCAAAGUGGCUGUGGCUAGGCUGCCUCUCUGGAUUCCUCGUCACUCAGCAGGGCAUCUCUGAGAGAAAUGCC [U5A A94G]	0.44
UACGUAGGUGGUUUUCCCCUGAUAGUGCUAAGGGGACCUGGAAGUUUGGACUGGGCAGAGCGCAACACAGCGUGGCAAAGUGGCUGUGGCUAGACUGCCUCUCUGGAUUCCUCGUCACUCAGCAGGGCAUCUCUGAGAGAAAUGCC [G36A U62G]	0.01
UACGUAGGUGGUUUUCCCCUGAUAGUGCUAAGGGAGCCUGGAAGUUUGGACUGGGCAGAGCUCAACGCAGCGUGGCAAAGUGGCUGUGGCUAGACUGCCUCUCUGGAUUCCUCGUCACUCAGCAGGGCAUCUCUGAGAGAAAUGCC [G35A A67G]	0.22
UACGUAGGUGGUUUUCCCCUGAUAGUGCUAAGGGGGCCUGUAAGUUUGGACUGGGCAGAGCUCAACACAGCGUGGCAAAGUGGCUGUGGCUAGACUGCCUCUCUGGAUUCCUCGUCACUCAGCAGGGCAUCUCUGAGAGGAAUGCC [G41U A140G]	1.14
UACGUAGGUGGUUUUCCCCUGAUAGUGCUAAGGGGGCCUGGAAGUUCGGACUGGGCAGAGCUCAACACAGCGUGGCAAAGUGGCUGUGGCUAGACUCCCUCUCUGGAUUCCUCGUCACUCAGCAGGGCAUCUCUGAGAGAAAUGCC [U47C G97C]	1.3
UACGUAGGUGGUUUUCCCCUGAUAGUGCUAAGGGGGCCUGGAUGUGUGGACUGGGCAGAGCUCAACACAGCGUGGCAAAGUGGCUGUGGCUAGACUGCCUCUCUGGAUUCCUCGUCACUCAGCAGGGCAUCUCUGAGAGAAAUGCC [A43U U46G]	1.37
UACGUAGGUGGUUUUCCCCUGAUAGUGCUAAGGGGGCCUGGAAGUUUGGACUGAGCAGAGCUCAACACAGCGUGGCAAAGUGGCUGUGGCUAGACUGCCUCUCUGGAUUCCUCGUCACUCAGCAGGGCAUCUCUGAGAGAAAUGCC [G54A]	0.61
UACGUAGGUGGUUUUCCCCUGAUAGUGCUAAGGGGGCCUGGAAGUUUGGACAGGGCAGAGCUCAACACAGCGUGGCAAAGUGGCUGUGGCUAGACUGCCUCUCUGGAUUCCUCGUCACUCGGCAGGGCAUCUCUGAGAGAAAUGCC [U52A A121G]	1.74
UACGUAGGUGGUUUUCCCCUGAUAGUGCUAAGGGGGCCUGGAAGUUUGGACUGGGCAGAGCUCAACACAGCGUGGCAAAGUGGCCGUGGCUAGACUGCCUCUCUGGAUUCCUCGUCACUCAGCAGGGCAUCCCUGAGAGAAAUGCC [U85C U132C]	0.24
UACGUAGGUGGUUUUCCCCUGACAGUGCUAAGGGGGCCUGGAAGUCUGGACUGGGCAGAGCUCAACACAGCGUGGCAAAGUGGCUGUGGCUAGACUGCCUCUCUGGAUUCCUCGUCACUCAGCAGGGCAUCUCUGAGAGAAAUGCC [U23C U46C]	1.52
UACGUAGGUGGUUUUCCCCUGAUAGUGCUAAGGGGGCCUGGAAGUUUGGACUGGGCAGAGCUCAAGACAGCGUGGCAAAGAGGCUGUGGCUAGACUGCCUCUCUGGAUUCCUCGUCACUCAGCAGGGCAUCUCUGAGAGAAAUGCC [C66G U81A]	0.02
UACGUAGGUGGAUUUCCCCUGAUAGUGCUAAGGGGGCCUGGAGGUUUGGACUGGGCAGAGCUCAACACAGCGUGGCAAAGUGGCUGUGGCUAGACUGCCUCUCUGGAUUCCUCGUCACUCAGCAGGGCAUCUCUGAGAGAAAUGCC [U12A A43G]	0.85
UACGUAGGUGGCUUUCCCCUGAUAGUGCUAAGGGGGCCUGGAAGUUUGGACUGGGCAGAGCUCAACACAGCGUGGCAAAGUGGCUGUGGCUAGACUGCCUCUCUGGAUUCCUCGUUACUCAGCAGGGCAUCUCUGAGAGAAAUGCC [U12C C116U]	0.77
UACGUAGGUGGUUUUCCCCUGAUAGUGCUAAGGGGGCCUGGAAGUUUGGACUGGGCAGAGCUCAACACAGCGUGGCAAAGUGGCUGUGGCUGGACCGCCUCUCUGGAUUCCUCGUCACUCAGCAGGGCAUCUCUGAGAGAAAUGCC [A92G U96C]	0.25
UACGUAGGUGGUUUUCCCCUGAUAGUGCUAAGGGGGCCUGGAAGUUUGGGCUGGGCAGAGCUCAACACAGCGUGGCAAAGUGGCUGUGGCUAGACUGCCUCUCUGGAUCCCUCGUCACUCAGCAGGGCAUCUCUGAGAGAAAUGCC [A50G U109C]	0.96
UACGUAGGUGGCUUUCCCCUGAUAGUGCUAAGGGGGCCUGGAAGUUUGGACUGGGCAGAGCUCAACACAGCGUGGCAAAGUGGCUGUGGCUAGACUGCCUCUCCGGAUUCCUCGUCACUCAGCAGGGCAUCUCUGAGAGAAAUGCC [U12C U104C]	1.56
UACGUAGGUGGUUUUCCCCUGAUAGUGCUAAGGGGGCCUGGAAGGUUGGACUGGGCAGAGCUCAACACAGCGUGGCAAAGUGGCUGUGGCUAGACUGCCUCUCUGGAUUCCUUGUCACUCAGCAGGGCAUCUCUGAGAGAAAUGCC [U45G C113U]	0.88
UACGUAGGUGGUUUUCCCCUGAUAGUGCUAAGGGGGCCUGGAAGUUUGGACUGGGCAGAGCUCAACACAGCGUGGCAAAGUGGCUGUGGCUAGACUGCCUCUCGGGAUUCCUCGUCACUCAGCAGGGCAUCUCCGAGAGAAAUGCC [U104G U134C]	1.39
UACGUAGGUGGUUUUCCCCUGAUAGUGCUAAGGGGGCCUGGAAGUUUGGACUGGGCAGAGCUCAACACAGCGUGGCCAAGUGGCUGUGGCUAGACUGCCUCUCUGGAUUCCUCGUCACUCAGCAGAGCAUCUCUGAGAGAAAUGCC [A77C G126A]	1.25
